Experimental findings from paper PMC8688574 (The Journal of Biological Chemistry, 2021) are described below.

Series [1] concerns the target ATL1 N417ins catalytic core, G domain FRET construct. Put plainly: intermolecular FRET (G domain FRET). The conditions noted are these: equilibrated for 1 h before measurement, read off a plot.
In series [2] the target is T1, catalytic core of human ATL1 WT / N417ins (Homo sapiens, UniProt Q8WXF7).
T1 construct: catalytic core (G + middle domains), WT residues 1-449 (N417ins 1-450), C-terminal His10 tag kept, E. coli BL21(DE3)
T1 sequence (Q8WXF7 with tags, fused parts or gaps INS416N): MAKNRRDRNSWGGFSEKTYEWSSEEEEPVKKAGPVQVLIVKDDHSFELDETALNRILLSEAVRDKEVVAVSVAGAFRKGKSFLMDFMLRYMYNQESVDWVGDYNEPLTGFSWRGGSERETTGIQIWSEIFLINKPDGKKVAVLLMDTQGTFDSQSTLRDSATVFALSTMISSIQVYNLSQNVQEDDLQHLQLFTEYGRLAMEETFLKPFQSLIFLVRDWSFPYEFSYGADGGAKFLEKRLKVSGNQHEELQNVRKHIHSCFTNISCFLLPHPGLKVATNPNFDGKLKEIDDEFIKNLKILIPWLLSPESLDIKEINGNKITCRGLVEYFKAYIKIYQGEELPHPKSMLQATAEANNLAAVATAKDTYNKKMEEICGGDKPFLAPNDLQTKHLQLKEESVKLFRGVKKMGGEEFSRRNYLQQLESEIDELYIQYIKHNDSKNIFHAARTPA
The experiment in a line: SEC-MALS, nucleotide-dependent dimerization. Type of series: binding. The settings on record: 2 mM GppNHp; 4 mM MgCl2, pH 7.5; 50 μM protein.

Series [3] concerns the target T2, catalytic core of human ATL1 WT / N417ins (Homo sapiens, UniProt Q8WXF7).
T2 construct: catalytic core (G + middle domains), WT residues 1-449 (N417ins 1-450), C-terminal His10 tag kept, E. coli BL21(DE3)
T2 sequence (Q8WXF7 1-449): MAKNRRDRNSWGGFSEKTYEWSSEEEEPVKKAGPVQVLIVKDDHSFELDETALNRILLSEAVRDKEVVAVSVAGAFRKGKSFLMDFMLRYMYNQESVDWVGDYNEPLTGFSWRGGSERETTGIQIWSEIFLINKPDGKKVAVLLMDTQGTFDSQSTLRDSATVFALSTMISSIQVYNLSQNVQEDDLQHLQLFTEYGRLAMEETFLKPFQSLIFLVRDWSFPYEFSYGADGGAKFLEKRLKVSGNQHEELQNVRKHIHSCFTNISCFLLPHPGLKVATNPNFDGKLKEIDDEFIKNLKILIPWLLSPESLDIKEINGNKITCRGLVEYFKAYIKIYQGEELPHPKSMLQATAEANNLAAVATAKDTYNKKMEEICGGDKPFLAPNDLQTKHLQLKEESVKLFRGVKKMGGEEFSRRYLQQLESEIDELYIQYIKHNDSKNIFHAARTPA
Put plainly: SEC-MALS, nucleotide-dependent dimerization. In kind it is binding. The settings on record: 2 mM GppNHp; 4 mM MgCl2, pH 7.5; 50 μM protein. The source holds these as a separate data set.

Series [4] addresses T2, catalytic core of human ATL1 WT / N417ins. The experiment in a line: limited proteolysis (proteinase K) protection. In kind it is binding. The conditions noted are these: 2 mM GDP; MgCl2, pH 7.5; on ice.
Series [5] deals with ATL1 N417ins catalytic core C375A K400C, labelled on the middle domain with AlexaFluor-488 or AlexaFluor-647. Put plainly: intermolecular FRET (middle domain FRET). The settings on record: equilibrated for 1 h before measurement, read off a plot.
Series [6] deals with the molecule itself. The experiment in a line: SEC-MALS; 50 μM protein loaded, preincubated with 2 mM GppNHp; Superdex Increase 200 10/300 GL; 25 mM Tris-HCl pH 7.5, 100 mM NaCl, 2 mM EGTA, 4 mM MgCl2.
Where [7] appears, read: apo (no nucleotide), parent: est. 0.0083.

As to “ATL1 WT catalytic core, G domain FRET construct N417ins”, the response in series [1] (GDP, parent: est. 0.014) came to 0.011; in series [1] (GDP•AlF4-, parent: est. 0.076), 0.078; in series [1] (setting [7]), 0.009.
`Nc1nc2c(ncn2[C@@H]2O[C@H](COP(=O)(O)OP(=O)(O)NP(=O)(O)O)[C@@H](O)[C@H]2O)c(=O)[nH]1` [GppNHp]: the “SEC-MALS, nucleotide-dependent dimerization” value in series [2] is “Only a minor fraction of the mutant protein eluted as a monomer upon incubation with GppNHp”; in series [3], “dimerized in the presence of GppNHp and GDP•AlF4^−”.
With `Nc1nc2c(ncn2[C@@H]2O[C@H](COP(=O)(O)OP(=O)(O)O)[C@@H](O)[C@H]2O)c(=O)[nH]1` [GDP], in series [4], the “limited proteolysis (proteinase K) protection” value was “when bound to GDP, the WT protein is largely protected from degradation”.
“ATL1 WT catalytic core, middle domain FRET construct N417ins”: the response in series [5] (GDP, parent: est. 0.0098) is 0.011; in series [5] (GDP•AlF4-, parent: est. 0.061) it was 0.066; in series [5] (setting [7]) it was 0.009.

B1: human ATL1 WT catalytic core (residues 1–449) (domain or fragment, UniProt Q8WXF7-1 1-449, looked up)
chain: T2 sequence (Q8WXF7 1-449)
notes: atlastin-1 (ATL1/SPG3A), human, catalytic core of G and middle domains, residues 1-449; pET21 vector; Monomer without nucleotide or with GDP, dimer with GppNHp or GDP•AlF4-; Theoretical monomer mass 52.8 kDa; also called atlastin-1; SPG3A; source: E. coli BL21(DE3), purified (Ni-NTA, desalting, S200 gel filtration); not shown: His10, C-terminal, kept
For B1, the “stoichiometry N” value in series [6] turned out to be 2.

B2: human ATL1 N417ins catalytic core (residues 1–450) (domain or fragment, UniProt Q8WXF7-1 1-450, looked up)
chain: MAKNRRDRNSWGGFSEKTYEWSSEEEEPVKKAGPVQVLIVKDDHSFELDETALNRILLSEAVRDKEVVAVSVAGAFRKGKSFLMDFMLRYMYNQESVDWVGDYNEPLTGFSWRGGSERETTGIQIWSEIFLINKPDGKKVAVLLMDTQGTFDSQSTLRDSATVFALSTMISSIQVYNLSQNVQEDDLQHLQLFTEYGRLAMEETFLKPFQSLIFLVRDWSFPYEFSYGADGGAKFLEKRLKVSGNQHEELQNVRKHIHSCFTNISCFLLPHPGLKVATNPNFDGKLKEIDDEFIKNLKILIPWLLSPESLDIKEINGNKITCRGLVEYFKAYIKIYQGEELPHPKSMLQATAEANNLAAVATAKDTYNKKMEEICGGDKPFLAPNDLQTKHLQLKEESVKLFRGVKKMGGEEFSRRNYLQQLESEIDELYIQYIKHNDSKNIFHAARTPAT
notes: atlastin-1 (ATL1/SPG3A), human, catalytic core with the patient's in-frame insertion of an asparagine between R416 and Y417; residues 1-450. numbers count on: the mutant protein with the extra residue (1-449 of the wild type plus N417); pET21 vector; construct for enzyme assays, SEC-MALS and tethering; Theoretical monomer mass 52.9 kDa; also called N417ins mutant protein; …
Take B2: the “stoichiometry N” value in series [6] is 2.
